Columns and labels:
[1] = target: human CLDN3 S42A mutant on RKO KO cells (human) (UniProt O15551); test: flow cytometry, 906-mAb-PE on RKO KO cells expressing the mutant
[2] = target: human CLDN3 Q155A mutant on RKO KO cells (human) (UniProt O15551); test: as above
[3] = target: human CLDN3 I39A mutant on RKO KO cells (human) (UniProt O15551); test: as above
[4] = target: human CLDN3 N148A mutant on RKO KO cells (human) (UniProt O15551); test: as above
[5] = target: human CLDN3 P152A mutant on RKO KO cells (human) (UniProt O15551); test: as above
Sequence of human CLDN3 P152A mutant on RKO KO cells (human) (O15551 whole entry P152A): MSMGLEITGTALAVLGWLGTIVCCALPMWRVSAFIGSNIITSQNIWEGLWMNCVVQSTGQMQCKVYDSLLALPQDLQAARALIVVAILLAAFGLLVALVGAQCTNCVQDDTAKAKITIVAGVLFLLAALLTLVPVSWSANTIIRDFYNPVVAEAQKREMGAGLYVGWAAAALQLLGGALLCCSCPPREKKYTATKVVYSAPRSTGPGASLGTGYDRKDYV

[6] = target: human CLDN3 V150A mutant on RKO KO cells (human) (UniProt O15551); test: as above
Sequence of human CLDN3 V150A mutant on RKO KO cells (human) (O15551 whole entry V150A): as the sequence (O15551 whole entry P152A) above, with V150A, A152P counted along it

[7] = target: human CLDN3 I45A mutant on RKO KO cells (human) (UniProt O15551); test: as above
Sequence of human CLDN3 I45A mutant on RKO KO cells (human) (O15551 whole entry I45A): as the sequence (O15551 whole entry P152A) above, with I45A, A152P counted along it

[8] = target: human CLDN3 R157A mutant on RKO KO cells (human) (UniProt O15551); test: as above
Sequence of human CLDN3 R157A mutant on RKO KO cells (human) (O15551 whole entry R157A): as the sequence (O15551 whole entry P152A) above, with A152P, R157A counted along it

[9] = target: human CLDN3 K156A mutant on RKO KO cells (human) (UniProt O15551); test: as above
Sequence of human CLDN3 K156A mutant on RKO KO cells (human) (O15551 whole entry K156A): as the sequence (O15551 whole entry P152A) above, with A152P, K156A counted along it

[10] = target: T1, human CLDN3 E153A mutant on RKO KO cells (human, UniProt O15551 1-220); test: as above
T1 construct: Single-point alanine mutant, monoclonal RKO KO line with GFP
T1 chain: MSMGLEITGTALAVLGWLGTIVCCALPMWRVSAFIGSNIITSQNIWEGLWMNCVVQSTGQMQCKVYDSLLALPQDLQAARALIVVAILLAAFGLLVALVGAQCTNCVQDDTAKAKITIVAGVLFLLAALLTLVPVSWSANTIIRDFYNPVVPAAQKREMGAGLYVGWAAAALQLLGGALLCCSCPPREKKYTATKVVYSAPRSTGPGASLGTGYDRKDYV
Description: (§1) Flow cytometry. RKO KO target cells were seeded for flow cytometry as described in previous sections. Wells were topped up with flow buffer (PBS+2% FBS+2 mM EDTA+0.05% sodium azide) and plates were centrifuged at 300×g for 5 minutes. Supernatant was flicked off, cells were resuspended in 150 uL flow buffer. Plate was centrifuged at 300×g for 5 minutes. Supernatant was flicked off and cells were resuspended in 50 uL IgG block at 1:100 for 10 minutes at RT. Following incubation, plate was washed twice as above. Cells were resuspended in 50 uL of diluted antibodies (all a 1 in 300 dilution) in flow buffer, or flow buffer alone (unstained control). Cells were incubated for 30 minutes at RT. After incubation, plates were washed twice with 150 uL flow buffer. Cells were then resuspended in 100 uL flow buffer containing DAPI at a 1:200 concentration as a live/dead stain. Cells were run immediately on the CYTOFLEXS. Cells were acquired on fast flow rate, with a stopping condition of 10,000 live cells (based on Total>Singlets>Live).
(§2) Cell lines for analysis included RKO KO, a CLDN3 knockout (included as a negative control), RKO KO CLDN3 mutant cells (with various single-amino acid CLDN3 mutations) and RKO KO CLDN3 WT cells (positive control). RKO KO CLDN3 mutant cell lines were selected and generated as outlined in previous sections.

[11] = target: T2, human CLDN3 N38A mutant on RKO KO cells (human, UniProt O15551 1-220); test: as above
T2 construct: Single-point alanine mutant, monoclonal RKO KO line with GFP
T2 chain: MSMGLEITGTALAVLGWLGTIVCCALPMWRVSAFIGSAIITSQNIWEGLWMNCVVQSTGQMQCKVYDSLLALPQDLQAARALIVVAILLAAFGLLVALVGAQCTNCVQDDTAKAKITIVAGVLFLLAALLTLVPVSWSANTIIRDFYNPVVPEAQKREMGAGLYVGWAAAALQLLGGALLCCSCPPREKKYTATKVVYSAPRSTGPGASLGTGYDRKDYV
Description: as §1, §2

[12] = target: human CLDN3 S42A mutant on RKO KO cells (human) (UniProt O15551); test: flow cytometry, % 906-mAb-PE positive of live cells
[13] = target: human CLDN3 Q155A mutant on RKO KO cells (human) (UniProt O15551); test: as above
[14] = target: human CLDN3 I39A mutant on RKO KO cells (human) (UniProt O15551); test: as above
[15] = target: human CLDN3 F34A mutant on RKO KO cells (human) (UniProt O15551); test: as above
Sequence of human CLDN3 F34A mutant on RKO KO cells (human) (O15551 whole entry F34A): as the sequence (O15551 whole entry P152A) above, with F34A, A152P counted along it

[16] = target: human CLDN3 N148A mutant on RKO KO cells (human) (UniProt O15551); test: as above
[17] = target: human CLDN3 P152A mutant on RKO KO cells (human) (UniProt O15551); test: as above
[18] = target: human CLDN3 V150A mutant on RKO KO cells (human) (UniProt O15551); test: as above
[19] = target: human CLDN3 P149A mutant on RKO KO cells (human) (UniProt O15551); test: as above
Sequence of human CLDN3 P149A mutant on RKO KO cells (human) (O15551 whole entry P149A): as the sequence (O15551 whole entry P152A) above, with P149A, A152P counted along it

[20] = target: human CLDN3 I45A mutant on RKO KO cells (human) (UniProt O15551); test: as above
[21] = target: human CLDN3 Q43A mutant on RKO KO cells (human) (UniProt O15551); test: as above
Sequence of human CLDN3 Q43A mutant on RKO KO cells (human) (O15551 whole entry Q43A): as the sequence (O15551 whole entry P152A) above, with Q43A, A152P counted along it

[22] = target: human CLDN3 R157A mutant on RKO KO cells (human) (UniProt O15551); test: as above
[23] = target: human CLDN3 K156A mutant on RKO KO cells (human) (UniProt O15551); test: as above

Sequence of human CLDN3 S42A mutant on RKO KO cells (human) (O15551 whole entry S42A): as the sequence (O15551 whole entry P152A) above, with S42A, A152P counted along it
Sequence of human CLDN3 I39A mutant on RKO KO cells (human) (O15551 whole entry I39A): as the sequence (O15551 whole entry P152A) above, with I39A, A152P counted along it
Sequence of human CLDN3 Q155A mutant on RKO KO cells (human) (O15551 whole entry Q155A): as the sequence (O15551 whole entry P152A) above, with A152P, Q155A counted along it
Sequence of human CLDN3 N148A mutant on RKO KO cells (human) (O15551 whole entry N148A): as the sequence (O15551 whole entry P152A) above, with N148A, A152P counted along it

fold change MFI vs CLDN3 WT (fold vs CLDN3 WT) [1]: 3.91
fold change MFI vs CLDN3 WT (fold vs CLDN3 WT) [2]: 3.4
fold change MFI vs CLDN3 WT (fold vs CLDN3 WT) [3]: 0.95
fold change MFI vs CLDN3 WT (fold vs CLDN3 WT) [4]: 2.75
fold change MFI vs CLDN3 WT (fold vs CLDN3 WT) [5]: 5.07
fold change MFI vs CLDN3 WT (fold vs CLDN3 WT) [6]: 2.98
fold change MFI vs CLDN3 WT (fold vs CLDN3 WT) [7]: 3.17
fold change MFI vs CLDN3 WT (fold vs CLDN3 WT) [8]: 1.31
fold change MFI vs CLDN3 WT (fold vs CLDN3 WT) [9]: 0.73
binding result [10]: no binding
binding result [11]: no binding
Change in % Parent (906-mAb-PE positive cells) vs CLDN3 WT [12]: 0.1%
Change in % Parent (906-mAb-PE positive cells) vs CLDN3 WT [13]: 0.1%
Change in % Parent (906-mAb-PE positive cells) vs CLDN3 WT [14]: 0.1%
Change in % Parent (906-mAb-PE positive cells) vs CLDN3 WT [15]: -0.95%
Change in % Parent (906-mAb-PE positive cells) vs CLDN3 WT [16]: 0.1%
Change in % Parent (906-mAb-PE positive cells) vs CLDN3 WT [17]: 0.1%
Change in % Parent (906-mAb-PE positive cells) vs CLDN3 WT [18]: 0%
Change in % Parent (906-mAb-PE positive cells) vs CLDN3 WT [19]: 0.1%
Change in % Parent (906-mAb-PE positive cells) vs CLDN3 WT [20]: 0.05%
Change in % Parent (906-mAb-PE positive cells) vs CLDN3 WT [21]: 0.1%
Change in % Parent (906-mAb-PE positive cells) vs CLDN3 WT [22]: 0.1%
Change in % Parent (906-mAb-PE positive cells) vs CLDN3 WT [23]: 0.05%
B1: 906-mAb (anti-CLDN3 906-mAb, monoclonal antibody version of the scFv of 906-009_LNGFR) (antibody, V domains shown)
VH: QVQLVQSGAEVKKPGSSVKVSCKASGYTFTNYWVHWVRQAPGQGLEWMGRIEPNSSGSQYNEKFKNRVTITADKSTSTAYMELSSLRSEDTAVYYCARGVMVPLDYWGQGTLVTVSS
VL: DIQMTQSPSSLSASVGDRVTITCKASQDINRYIAWYQQKPGKAPKLLIHYTSTLQPGVPSRFSGSGSGTDFTLTISSLQPEDFATYYCLQYETLYSFGQGTKLEIK
